# Measurements: PMC3820802, “Activin Signaling Targeted by Insulin/dFOXO Regulates Aging and Muscle Proteostasis in Drosophila”
# T1: Smox MH1 DNA-binding domain (UniProt O96660 1-140)
# T1 sequence: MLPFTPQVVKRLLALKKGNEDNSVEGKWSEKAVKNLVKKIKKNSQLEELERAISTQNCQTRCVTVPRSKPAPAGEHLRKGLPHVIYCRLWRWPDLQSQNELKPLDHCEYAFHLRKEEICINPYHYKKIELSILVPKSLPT
# B1: Atg8a probe (dsDNA)
# DNA 1: CATATTAGACAGACACCATT
# DNA 2: AATGGTGTCTGTCTAATATG
# B2: Atg8a-Mut2 (dsDNA)
# DNA 1: CATATTAGCTACATACCATT
# DNA 2: AATGGTATGTAGCTAATATG
# B3: Atg8a-Mut3 (dsDNA)
# DNA 1: CATATTAGATAGATACCATT
# DNA 2: AATGGTATCTATCTAATATG
# B4: SBE (vertebrate Smad binding element) (dsDNA)
# DNA 1: GTATGTCTAGACTGAA
# DNA 2: TTCAGTCTAGACATAC
# Key:
# [1] = target: T1, Smox MH1 DNA-binding domain; assay: EMSA; blocked by unlabeled wild-type probe; 10 mM Tris-HCl pH 7.5, 150 mM KCl, 5 mM MgCl2, 10 ng/uL poly(dI-dC), ~50 ng probe, 20 ug protein in 10 uL, room temperature 20 min; 0.8% agarose, 0.5x TBE; details: protein: recombinant; tags: His6-HaloTag (pFN29K vector; purified with HaloTag kit, tag retention: called Halo-tagged in legend); (only one strand seen in the material)
# [2] = target: T1, Smox MH1 DNA-binding domain; assay: competition; EMSA, cold competitor vs labeled N1; did not compete; 10 mM Tris-HCl pH 7.5, 150 mM KCl, 5 mM MgCl2, 10 ng/uL poly(dI-dC), ~50 ng probe, 20 ug protein in 10 uL, room temperature 20 min; 0.8% agarose, 0.5x TBE; details: protein: recombinant; tags: His6-HaloTag (pFN29K vector; purified with HaloTag kit, tag retention: called Halo-tagged in legend); (only one strand seen in the material)
# [3] = target: T1, Smox MH1 DNA-binding domain; assay: EMSA; 10 mM Tris-HCl pH 7.5, 150 mM KCl, 5 mM MgCl2, 10 ng/uL poly(dI-dC), ~50 ng probe, 20 ug protein in 10 uL, room temperature 20 min; 0.8% agarose, 0.5x TBE; details: protein: recombinant; tags: His6-HaloTag (pFN29K vector; purified with HaloTag kit, tag retention: called Halo-tagged in legend); label: 3' biotin; (only one strand seen in the material)
Binder,binding result [2],other results
B1,,binding result [1]: binds
B2,no binding,
B3,no binding,
B4,,binding result [3]: binds
